Test results: PMC2835468 (Matrix biology : journal of the International Society for …, 2009)

T1: ADAMTS5-2 (human ADAMTS-5 deletion mutant, C-terminal FLAG-tag) (human, UniProt Q9UNA0 262-874)
T1 sequence (looked up): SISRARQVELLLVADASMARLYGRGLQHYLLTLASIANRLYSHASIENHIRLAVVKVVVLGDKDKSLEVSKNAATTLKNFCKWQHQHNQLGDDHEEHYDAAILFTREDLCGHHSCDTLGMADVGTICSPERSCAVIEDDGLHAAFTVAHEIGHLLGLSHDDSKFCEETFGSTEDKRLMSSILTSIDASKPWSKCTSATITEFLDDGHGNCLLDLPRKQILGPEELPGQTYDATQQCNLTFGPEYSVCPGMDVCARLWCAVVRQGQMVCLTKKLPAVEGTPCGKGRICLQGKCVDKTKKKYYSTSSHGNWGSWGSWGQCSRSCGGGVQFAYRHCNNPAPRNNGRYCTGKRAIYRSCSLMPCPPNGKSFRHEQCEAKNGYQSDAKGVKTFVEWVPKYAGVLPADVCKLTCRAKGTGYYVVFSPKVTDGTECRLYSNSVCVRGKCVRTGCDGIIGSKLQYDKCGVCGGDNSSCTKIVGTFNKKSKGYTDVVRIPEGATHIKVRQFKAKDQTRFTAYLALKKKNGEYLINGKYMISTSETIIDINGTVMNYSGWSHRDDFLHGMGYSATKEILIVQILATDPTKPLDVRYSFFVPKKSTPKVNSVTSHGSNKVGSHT

T2: ADAMTS4-2 (human ADAMTS-4 deletion mutant, C-terminal FLAG-tag) (human, UniProt O75173 213-685)
T2 sequence (looked up): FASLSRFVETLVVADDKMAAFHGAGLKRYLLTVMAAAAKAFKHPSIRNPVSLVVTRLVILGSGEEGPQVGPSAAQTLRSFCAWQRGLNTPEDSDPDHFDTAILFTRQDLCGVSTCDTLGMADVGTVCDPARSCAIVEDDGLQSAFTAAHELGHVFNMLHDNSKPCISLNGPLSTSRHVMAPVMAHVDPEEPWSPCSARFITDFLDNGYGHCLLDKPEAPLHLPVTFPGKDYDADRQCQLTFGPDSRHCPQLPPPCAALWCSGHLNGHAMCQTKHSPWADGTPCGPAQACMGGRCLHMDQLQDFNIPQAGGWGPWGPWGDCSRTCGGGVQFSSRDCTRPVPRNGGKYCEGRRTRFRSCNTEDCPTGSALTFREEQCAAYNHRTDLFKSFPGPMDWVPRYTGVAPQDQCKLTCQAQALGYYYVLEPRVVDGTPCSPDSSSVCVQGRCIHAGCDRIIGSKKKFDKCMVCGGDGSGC

T3: Catalytic domain of human MMP-1 (MMP-1cat) (human, UniProt P03956 100-269)
T3 sequence (looked up): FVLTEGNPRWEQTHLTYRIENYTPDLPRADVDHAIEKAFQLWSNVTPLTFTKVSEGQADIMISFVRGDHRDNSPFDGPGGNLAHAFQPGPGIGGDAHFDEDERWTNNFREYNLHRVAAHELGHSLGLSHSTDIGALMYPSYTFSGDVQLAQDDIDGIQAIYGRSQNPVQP


Legend:
Assay in all cases: enzyme inhibition kinetics
[1] = target: T1, ADAMTS5-2 (human ADAMTS-5 deletion …)
[2] = target: T2, ADAMTS4-2 (human ADAMTS-4 deletion …)
[3] = target: Catalytic domain of human MMP-3 (MMP-3cat) (human, UniProt P08254 100-272)
[4] = target: T3, Catalytic domain of human MMP-1 …

Chain of Catalytic domain of human MMP-3 (MMP-3cat) (P08254 100-272): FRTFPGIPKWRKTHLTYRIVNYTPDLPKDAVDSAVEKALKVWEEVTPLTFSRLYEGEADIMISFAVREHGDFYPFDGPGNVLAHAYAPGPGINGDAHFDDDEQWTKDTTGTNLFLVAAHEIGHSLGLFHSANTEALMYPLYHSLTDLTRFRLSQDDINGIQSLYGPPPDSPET

Binder | Ki [1] | Ki [2] | Ki [3] | Ki [4]
Non-glycosylated full-length human TIMP-3, FLAG-tagged, from HEK293 cells treated with tunicamycin (natural protein, UniProt P35625 24-211, looked up) CTCSPSHPQDAFCNSDIVIRAKVVGKKLVKEGPFGTLVYTIKQMKMYRGFTKMPHVQYIHTEASESLCGLKLEVNKYQYLLTGRVYDGKMYTGLCNFVERWDQLTLSQRKGLNYRYHLGCNCKIKSCYYLPCFVTSKNECLWTDMLSNFGYPGYQSKHYACIRQKGGYCSWYRGWAPPDKSIINATDP | 1370 pM | 200 pM |  | 
N-terminal domain of human TIMP-3 with C-terminal His-tag, expressed in Escherichia coli and folded in vitro (domain or fragment, UniProt P35625 24-144, looked up) CTCSPSHPQDAFCNSDIVIRAKVVGKKLVKEGPFGTLVYTIKQMKMYRGFTKMPHVQYIHTEASESLCGLKLEVNKYQYLLTGRVYDGKMYTGLCNFVERWDQLTLSQRKGLNYRYHLGCN | 320 pM | 790 pM | 11100 pM | 800 pM
